{"source": "paper doi:10.1101/2024.06.03.596960", "about": "(bioRxiv, 2024)", "molecules": {"B1": {"name": "ZBTB16 BTB domain (residues 1-130) (domain or fragment)", "chain": "MDLTKMGMIQLQNPSHPTGLLCKANQMRLAGTLCDVVIMVDSQEFHAHRTVLACTSKMFEILFHRNSQHYTLDFLSPKTFQQILEYAYTATLQAKAEDLDDLLYAAEILEIEYLEEQCLKMLETIQASDD"}}, "data": [{"biological_target": "His10-TEV-BACH1^BTB (UniProt O14867)", "assay": "AlphaScreen or HTRF", "units": {"IC50": "nM"}, "values": [{"molecule": "SKP1-FBXO22(Q307E) (cancer-associated, TCGA) (from UniProt P63208 2-163; Q8NEZ5 12-403) (complex)", "IC50": 575}, {"molecule": "SKP1-FBXO22(Q307R) (cancer-associated, TCGA) (from UniProt P63208 2-163; Q8NEZ5 12-403) (complex)", "IC50": 165}, {"molecule": "SKP1-FBXO22(R367L) (cancer-associated, TCGA) (from UniProt P63208 2-163; Q8NEZ5 12-403) (complex)", "IC50": 1040}, {"molecule": "SKP1-FBXO22(R367W) (cancer-associated, TCGA) (from UniProt P63208 2-163; Q8NEZ5 12-403) (complex)", "IC50": 1480}, {"molecule": "SKP1-FBXO22(R376D) (from UniProt P63208 2-163; Q8NEZ5 12-403) (complex)", "IC50": 900}, {"molecule": "SKP1-FBXO22(R376P) (from UniProt P63208 2-163; Q8NEZ5 12-403) (complex)", "IC50": 1350}]}, {"biological_target": "biotinylated ^AviSKP1-FBXO22(12-403) (UniProt P63208)", "sequence (P63208 2-163, chain 1 of 2)": "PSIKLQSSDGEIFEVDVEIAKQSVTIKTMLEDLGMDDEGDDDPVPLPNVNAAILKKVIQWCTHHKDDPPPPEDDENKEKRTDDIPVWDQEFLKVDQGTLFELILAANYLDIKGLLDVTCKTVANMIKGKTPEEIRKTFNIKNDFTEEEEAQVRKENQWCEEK", "sequence (Q8NEZ5 12-403, chain 2 of 2, further chain)": "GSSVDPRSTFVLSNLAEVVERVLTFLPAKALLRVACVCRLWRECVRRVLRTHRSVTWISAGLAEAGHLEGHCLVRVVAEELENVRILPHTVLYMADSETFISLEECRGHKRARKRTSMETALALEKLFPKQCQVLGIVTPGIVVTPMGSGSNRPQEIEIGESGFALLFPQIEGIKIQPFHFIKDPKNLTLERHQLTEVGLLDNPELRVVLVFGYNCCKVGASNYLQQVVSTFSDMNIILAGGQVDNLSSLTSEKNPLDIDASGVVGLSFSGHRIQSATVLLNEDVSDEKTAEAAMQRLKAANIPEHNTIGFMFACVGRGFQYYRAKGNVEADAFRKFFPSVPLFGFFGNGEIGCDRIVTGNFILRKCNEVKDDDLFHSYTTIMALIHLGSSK", "assay": "AlphaScreen or HTRF", "units": {"IC50": "nM"}, "values": [{"molecule": "BACH1 BTB domain (residues 7-128), wild type, tag-free (from UniProt O14867 7-128) (domain or fragment)", "IC50": 64}, {"molecule": "BACH1^BTB E12R (from UniProt O14867 7-128) (domain or fragment)", "IC50": 149}, {"molecule": "BACH1^BTB F9A (from UniProt O14867 7-128) (domain or fragment)", "IC50": 320}, {"molecule": "BACH1^BTB F125A (from UniProt O14867 7-128) (domain or fragment)", "IC50": 7460}, {"molecule": "BACH1^BTB F125Y (from UniProt O14867 7-128) (domain or fragment)", "IC50": 656}, {"molecule": "BACH1^BTB S13A (from UniProt O14867 7-128) (domain or fragment)", "IC50": 183}, {"molecule": "BACH1^BTB S13D (from UniProt O14867 7-128) (domain or fragment)", "IC50": 2460}, {"molecule": "BACH1^BTB Y11A (from UniProt O14867 7-128) (domain or fragment)", "IC50": 2660}, {"molecule": "BACH1^BTB Y11F (from UniProt O14867 7-128) (domain or fragment)", "IC50": 140}, {"molecule": "BACH2 BTB domain (residues 8-131) (from UniProt Q9BYV9 8-131) (domain or fragment)", "IC50": 85}, {"molecule": "KEAP1 BTB domain (residues 48-180) (from UniProt Q14145 48-180) (domain or fragment)", "IC50": 150}]}, {"biological_target": "biotinylated ^AviSKP1-FBXO22(12-403) (UniProt P63208)", "assay": "AlphaScreen or HTRF", "remark": "another data set of the same source", "units": {"IC50": "nM"}, "values": [{"molecule": "B1", "IC50": 622}]}]}
